Results on 1 substance are retold here after patent publication US20130096281A1.

The target of this experiment is [Ag] (UniProt P04626). Description: yeast display titration (flow cytometry); Lip2prepro leader, Sag1p fusion. Background: Flow cytometry measures light scatter and fluorescence of single cells or particles in a stream.

For preproA1-Herceptin scFv, the Kd (in general, a measure of binding affinity in units of concentration) is 2.51 nM.
